pEC50, pIC50, pKd, pKi: −log10 of the molar value. Where “and” joins values, the source holds several entries; their conditions need not be identical. Equal values may be shown once. No end group written: not given here.
What was measured:
[1] = biological target: T1, NTR1 (Homo sapiens, UniProt P30989); assay: ^125I-NT binding to PC3 cells
[2] = biological target: T2, 5-LOX (Homo sapiens, UniProt P09917); conditions: range of reported values, various blood cell systems; cited from earlier work
T2 sequence (P09917 1-674): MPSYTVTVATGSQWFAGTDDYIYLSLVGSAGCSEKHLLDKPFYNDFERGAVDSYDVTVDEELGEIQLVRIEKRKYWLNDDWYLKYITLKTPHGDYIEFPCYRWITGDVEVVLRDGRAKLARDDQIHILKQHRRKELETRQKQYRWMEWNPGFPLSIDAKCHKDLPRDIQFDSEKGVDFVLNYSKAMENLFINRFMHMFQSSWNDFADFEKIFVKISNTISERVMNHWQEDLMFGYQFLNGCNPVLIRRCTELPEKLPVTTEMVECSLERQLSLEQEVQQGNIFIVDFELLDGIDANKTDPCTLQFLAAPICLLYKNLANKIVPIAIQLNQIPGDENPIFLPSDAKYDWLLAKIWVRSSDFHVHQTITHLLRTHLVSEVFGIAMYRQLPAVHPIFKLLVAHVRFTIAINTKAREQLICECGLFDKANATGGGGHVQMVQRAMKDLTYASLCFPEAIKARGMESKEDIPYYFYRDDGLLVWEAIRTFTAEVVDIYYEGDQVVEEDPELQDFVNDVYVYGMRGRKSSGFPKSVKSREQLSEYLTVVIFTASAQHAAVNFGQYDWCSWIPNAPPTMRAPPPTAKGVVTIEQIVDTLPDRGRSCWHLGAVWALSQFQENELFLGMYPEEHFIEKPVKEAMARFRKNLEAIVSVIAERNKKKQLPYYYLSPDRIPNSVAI

[3] = biological target: T3, bombesin receptor (Homo sapiens, UniProt P30550); assay: ^125I-[Nle^14]-bombesin binding to PC3 cells; conditions: for Specific Binding (% control) of ^125I-[Nle14]-bombesin: 37° C.
T3 construct: endogenous in cells; host or cells: PC3 cells (ATCC)

[4] = biological target: T1, NTR1; assay: ^125I-NT binding to isolated PC3 cell membranes; parameters: Ab-NTR1 detected two major bands in extracts of PC3 cells, the parent protein of 50 kDa; endogenous in cells; host or cells: PC3 cells (ATCC)
[5] = biological target: T1, NTR1; assay: UV crosslinking of ^125I-(4-azido-Phe^6)-NT into immunoprecipitated NTR1 of PC3 cells; format: binding; parameters: Ab-NTR1 detected two major bands in extracts of PC3 cells, the parent protein of 50 kDa; endogenous in cells; host or cells: PC3 cells (ATCC); conditions: 50 μM agent
[6] = biological target: T4, EGF receptor (Homo sapiens, UniProt P00533); assay: ^125I-EGF binding to PC3 cells; conditions: PC3 cells (text to Table 9)
T4 construct: endogenous in cells; host or cells: PC3 cells (ATCC)

[7] = biological target: T1, NTR1; format: cell-based; parameters: Ab-NTR1 detected two major bands in extracts of PC3 cells, the parent protein of 50 kDa; endogenous in cells; host or cells: PC3 cells (ATCC); conditions: 50 μM agent, 37° C., ^125I-NT prebound at 4° C.
[8] = biological target: T1, NTR1; assay: NT-induced IP formation in PC3 cells; format: cell-based; parameters: Ab-NTR1 detected two major bands in extracts of PC3 cells, the parent protein of 50 kDa; endogenous in cells; host or cells: PC3 cells (ATCC); conditions: maximal % decrease in NT-induced IP formation
[9] = test system: PC3 cells; assay: ATP-induced IP formation in PC3 cells; format: cell-based; conditions: maximal dose of ATP (10 μM)
[10] = biological target: neurotensin-2 receptor (NTR2) (Homo sapiens, UniProt O95665); conditions: read-out: binding affinity; cited from earlier work
[11] = biological target: neurotensin-1 receptor (NTR1) (Homo sapiens, UniProt P30989); conditions: read-out: binding affinity; cited from earlier work
[12] = biological target: vasopressin (V1a) receptor of PC3 cells (UniProt P37288); assay: 125I-ligand binding to PC3 cells, 37 C, with 60 µM AA-861
[13] = biological target: vasopressin (V1a) receptor of PC3 cells (UniProt P37288); assay: Scatchard analysis, PC3 cells
[14] = biological target: vasopressin (V1a) receptor of PC3 cells (UniProt P37288); assay: 125I-ligand binding to PC3 cells with 60 µM SKF-96365
[15] = biological target: vasopressin (V1a) receptor of PC3 cells (UniProt P37288); assay: 125I-ligand binding to PC3 cells with 60 µM NIF
[16] = biological target: vasopressin (V1a) receptor of PC3 cells (UniProt P37288); assay: 125I-ligand binding to PC3 cells with 12 µM verapamil
[17] = biological target: vasopressin (V1a) receptor of PC3 cells (UniProt P37288); assay: 125I-ligand binding to PC3 cells, 37 C, with 60 µM Rev-5901
[18] = biological target: vasopressin (V1a) receptor of PC3 cells (UniProt P37288); assay: 125I-ligand binding to PC3 cells with 60 µM verapamil
[19] = biological target: vasopressin (V1a) receptor of PC3 cells (UniProt P37288); assay: 125I-ligand binding to PC3 cells with 12 µM SKF-96365
[20] = biological target: vasopressin (V1a) receptor of PC3 cells (UniProt P37288); assay: 125I-ligand binding to PC3 cells with 12 µM NIF
[21] = biological target: vasopressin (V1a) receptor of PC3 cells (UniProt P37288); assay: 125I-ligand binding to PC3 cells, 37 C, with 60 µM MK886
[22] = biological target: vasopressin (V1a) receptor of PC3 cells (UniProt P37288); assay: 125I-ligand binding to PC3 cells with 12 µM phloretin
[23] = biological target: vasopressin (V1a) receptor of PC3 cells (UniProt P37288); assay: 125I-HOLVA binding to PC3 cell membranes with 60 µM NIF
[24] = biological target: vasopressin (V1a) receptor of PC3 cells (UniProt P37288)
[25] = biological target: vasopressin (V1a) receptor of PC3 cells (UniProt P37288); assay: 125I-HOLVA binding to PC3 cell membranes with 60 µM SKF-96365
[26] = biological target: vasopressin (V1a) receptor of PC3 cells (UniProt P37288); assay: 125I-ligand binding to PC3 cells, 37 C, with 12 µM AA-861
[27] = biological target: vasopressin (V1a) receptor of PC3 cells (UniProt P37288); assay: 125I-ligand binding to PC3 cells, 37 C, with 12 µM MK886
[28] = biological target: vasopressin (V1a) receptor of PC3 cells (UniProt P37288); assay: 125I-ligand binding to PC3 cells, 37 C, with 60 µM NDGA
[29] = biological target: vasopressin (V1a) receptor of PC3 cells (UniProt P37288); assay: 125I-ligand binding to PC3 cells, 37 C, with 12 µM NDGA
[30] = biological target: vasopressin (V1a) receptor of PC3 cells (UniProt P37288); assay: 125I-HOLVA binding to PC3 cell membranes with 60 µM verapamil
[31] = biological target: vasopressin (V1a) receptor of PC3 cells (UniProt P37288); assay: 125I-ligand binding to PC3 cells, 37 C, with 12 µM Rev-5901
[32] = biological target: vasopressin (V1a) receptor of PC3 cells (UniProt P37288); assay: 125I-ligand binding to PC3 cells with 60 µM phloretin
[33] = biological target: vasopressin (V1a) receptor of PC3 cells (UniProt P37288); assay: 125I-ligand binding to PC3 cells

T3 sequence (P30550 whole entry): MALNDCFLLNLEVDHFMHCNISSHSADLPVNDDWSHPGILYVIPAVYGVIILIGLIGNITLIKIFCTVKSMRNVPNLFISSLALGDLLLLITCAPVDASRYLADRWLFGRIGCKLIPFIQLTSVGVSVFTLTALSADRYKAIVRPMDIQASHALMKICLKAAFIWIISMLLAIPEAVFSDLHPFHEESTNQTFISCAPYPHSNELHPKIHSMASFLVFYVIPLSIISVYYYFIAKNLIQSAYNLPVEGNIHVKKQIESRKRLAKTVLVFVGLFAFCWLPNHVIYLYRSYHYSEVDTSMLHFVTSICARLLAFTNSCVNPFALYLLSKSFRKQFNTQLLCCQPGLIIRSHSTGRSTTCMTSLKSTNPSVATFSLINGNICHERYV
Chain of vasopressin (V1a) receptor of PC3 cells (P37288 whole entry): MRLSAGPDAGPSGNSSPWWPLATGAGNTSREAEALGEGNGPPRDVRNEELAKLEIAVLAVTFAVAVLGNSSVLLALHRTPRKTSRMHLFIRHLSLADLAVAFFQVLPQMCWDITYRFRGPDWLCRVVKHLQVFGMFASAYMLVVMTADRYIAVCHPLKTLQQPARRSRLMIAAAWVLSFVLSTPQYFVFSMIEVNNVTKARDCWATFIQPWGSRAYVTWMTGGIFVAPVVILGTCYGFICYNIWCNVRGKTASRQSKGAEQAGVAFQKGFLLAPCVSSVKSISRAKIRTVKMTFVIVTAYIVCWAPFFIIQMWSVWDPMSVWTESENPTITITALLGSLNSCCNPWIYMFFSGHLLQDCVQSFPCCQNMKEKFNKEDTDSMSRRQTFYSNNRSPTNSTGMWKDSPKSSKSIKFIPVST
T1 sequence (P30989 whole entry): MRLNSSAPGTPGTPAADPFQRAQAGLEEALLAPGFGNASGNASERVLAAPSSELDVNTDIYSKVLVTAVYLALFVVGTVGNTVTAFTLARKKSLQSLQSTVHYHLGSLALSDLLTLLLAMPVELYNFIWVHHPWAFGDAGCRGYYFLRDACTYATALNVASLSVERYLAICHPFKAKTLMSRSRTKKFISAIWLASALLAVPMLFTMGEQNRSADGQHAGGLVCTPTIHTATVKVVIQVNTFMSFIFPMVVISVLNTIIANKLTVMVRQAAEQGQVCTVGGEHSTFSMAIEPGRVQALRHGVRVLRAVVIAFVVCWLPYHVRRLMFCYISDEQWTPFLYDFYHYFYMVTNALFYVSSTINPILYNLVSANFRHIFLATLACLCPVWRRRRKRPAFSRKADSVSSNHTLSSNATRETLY
Chain of neurotensin-2 receptor (NTR2) (O95665 whole entry, species assumed): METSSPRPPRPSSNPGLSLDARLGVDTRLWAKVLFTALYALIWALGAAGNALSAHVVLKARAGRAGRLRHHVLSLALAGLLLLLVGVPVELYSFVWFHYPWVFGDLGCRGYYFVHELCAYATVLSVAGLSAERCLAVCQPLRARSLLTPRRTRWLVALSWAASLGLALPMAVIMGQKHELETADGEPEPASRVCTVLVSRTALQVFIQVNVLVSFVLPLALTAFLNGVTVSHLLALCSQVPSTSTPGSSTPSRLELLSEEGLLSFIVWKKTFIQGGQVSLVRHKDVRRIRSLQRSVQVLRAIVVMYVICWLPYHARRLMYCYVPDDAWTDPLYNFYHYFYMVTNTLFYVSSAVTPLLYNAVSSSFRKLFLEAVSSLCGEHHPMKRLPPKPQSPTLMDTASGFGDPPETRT
T4 sequence (P00533 25-1210): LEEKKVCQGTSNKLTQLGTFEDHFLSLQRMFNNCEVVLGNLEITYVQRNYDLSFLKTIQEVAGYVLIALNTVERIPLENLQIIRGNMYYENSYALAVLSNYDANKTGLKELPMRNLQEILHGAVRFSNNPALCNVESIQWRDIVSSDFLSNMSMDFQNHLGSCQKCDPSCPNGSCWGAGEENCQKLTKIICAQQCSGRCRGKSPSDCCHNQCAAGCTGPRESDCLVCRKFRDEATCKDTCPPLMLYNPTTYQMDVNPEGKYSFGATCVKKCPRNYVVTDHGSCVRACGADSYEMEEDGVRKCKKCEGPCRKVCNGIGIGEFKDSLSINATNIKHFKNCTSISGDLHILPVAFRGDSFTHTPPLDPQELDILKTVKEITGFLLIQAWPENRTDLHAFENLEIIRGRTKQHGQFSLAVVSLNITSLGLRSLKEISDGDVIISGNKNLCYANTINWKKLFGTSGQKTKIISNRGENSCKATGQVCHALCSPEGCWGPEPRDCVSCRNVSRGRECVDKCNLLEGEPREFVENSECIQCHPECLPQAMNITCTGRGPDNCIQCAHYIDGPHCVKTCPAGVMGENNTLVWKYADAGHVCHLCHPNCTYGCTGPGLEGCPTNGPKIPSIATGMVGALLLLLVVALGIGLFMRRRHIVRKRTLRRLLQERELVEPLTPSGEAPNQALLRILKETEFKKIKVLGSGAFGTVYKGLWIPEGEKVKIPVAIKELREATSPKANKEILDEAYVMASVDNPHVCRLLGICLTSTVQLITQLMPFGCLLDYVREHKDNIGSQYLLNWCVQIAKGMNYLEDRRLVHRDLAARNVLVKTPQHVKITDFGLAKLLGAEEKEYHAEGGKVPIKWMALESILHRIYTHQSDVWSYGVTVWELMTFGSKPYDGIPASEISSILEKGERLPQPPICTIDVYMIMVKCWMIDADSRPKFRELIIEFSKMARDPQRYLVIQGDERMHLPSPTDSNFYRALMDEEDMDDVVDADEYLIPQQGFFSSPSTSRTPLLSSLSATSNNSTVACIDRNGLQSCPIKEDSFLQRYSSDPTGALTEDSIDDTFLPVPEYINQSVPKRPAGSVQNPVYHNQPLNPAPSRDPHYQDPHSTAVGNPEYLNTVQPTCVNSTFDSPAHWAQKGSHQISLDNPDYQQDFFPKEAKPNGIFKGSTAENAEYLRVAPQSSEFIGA
Chain of neurotensin-1 receptor (NTR1) (P30989 whole entry, species assumed): as the sequence (P30989 whole entry) above

## CC(C)c1ccc2c(c1)c(SC(C)(C)C)c(CC(C)(C)C(=O)O)n2Cc1ccc(Cl)cc1 [MK886]
[1]; LOX blockers
  NT Binding Efficacy % increase: 210 % increase
[1]; as much as / up to, dose-response
  maximal increase in NT binding to PC3 cells: ≤ 3.0 fold
[1]; read-out: NT Binding EC50, [agent] giving 100% increase in NT binding
  pEC50: 4.74
[2]
  pIC50: 6.00 to 7.00
[3]; 12 μM LOX blocker
  Specific Binding (% control) of ^125I-[Nle14]-bombesin: 106 ± 5 % control
[3]; 60 μM LOX blocker
  Specific Binding (% control) of ^125I-[Nle14]-bombesin: 125 ± 7 % control
[4]; 10 μM LOX pathway blocker
  Specific NT-Binding (% control): 99 ± 3 % control
[4]; 25 μM LOX pathway blocker
  Specific NT-Binding (% control): 107 ± 4 % control
[4]; 75 μM LOX pathway blocker
  Specific NT-Binding (% control): 97 ± 4 % control
[5]
  radioactivity associated with NTR1: 2.7±0.3 fold
[6]
  increase in EGF binding: 65%

## O=C(CCc1ccc(O)cc1)c1c(O)cc(O)cc1O [Phloretin]
[1]; maximal % increase in NT binding observed for each agent
  NT Binding Efficacy % increase: 186 % increase
[3]; 12 μM agent
  Specific Binding (% control) of ^125I-[Nle^14]-bombesin: 104 ± 3 % control
[3]; 60 μM agent
  Specific Binding (% control) of ^125I-[Nle^14]-bombesin: 111 ± 4 % control
[4]; 10 μM agent, 22° C., 60 minutes
  Specific NT-Binding (% control): 110 ± 7 % control
[4]; 25 μM agent
  Specific NT-Binding (% control): 105 ± 8 % control
[4]; 75 μM agent
  Specific NT-Binding (% control): 97 ± 8 % control
[7]
  Internalization rate: 8.1±0.7 %/minute
[8]
  IP Formation Efficacy (% decrease): 70 % decrease

## Nc1ncnc2c1ncn2[C@@H]1O[C@H](COP(=O)(O)OP(=O)(O)OP(=O)(O)O)[C@@H](O)[C@H]1O [ATP]
[9]
  stimulation of IP formation: ~17 fold and > 15 fold

## Trp 11 NT(1-13): peptide identical to NT (1-13) except tryptophan for tyrosine at amino acid 11 (QLYENKPRRPWIL; ends and bridges not checked; UniProt P30990 151-163, looked up, variant Y11W)
[10]
  pKd: ~7.57
[11]
  pKd: ~9.00

## des-Gly-[Phaa1, D-Tyr(Et)2, Lys6, Arg8]-vasopressin (HOLVA) (peptide)
[12]
  Specific Binding (% control): 57 % control
[13]
  Bmax: 156 fmol/mg
[14]
  Specific Binding (% control): 50 % control
[15]
  Specific Binding (% control): 59 % control
[16]
  Specific Binding (% control): 85 % control
[17]
  Specific Binding (% control): 42 % control
[18]
  Specific Binding (% control): 58 % control
[19]
  Specific Binding (% control): 80 % control
[20]
  Specific Binding (% control): 95 % control
[21]
  Specific Binding (% control): 67 % control
[22]
  Specific Binding (% control): 92 % control
[23]
  Binding (% control): 90 % control
[24]
  pKi: 9.30
[25]
  Binding (% control): 110 % control
[26]
  Specific Binding (% control): 87 % control
[27]
  Specific Binding (% control): 93 % control
[28]
  Specific Binding (% control): 50 % control
[29]
  Specific Binding (% control): 84 % control
[30]
  Binding (% control): 91 % control
[31]
  Specific Binding (% control): 68 % control
[32]
  Specific Binding (% control): 73 % control
[33]
  Specific Binding (% of total): 77 % of total
